Two molecules from article PMC2172186 (The Journal of Cell Biology, 2004) can be followed below.

Experiment [1] has as its target TgMyoA (Toxoplasma gondii myosin-A, class XIV myosin) (Toxoplasma gondii (endogenous in RH strain parasites)) (UniProt O00934). Briefly: co-IP.
In experiment [2] the target is TgMyoA (Toxoplasma gondii myosin-A, class XIV myosin) (Toxoplasma gondii (endogenous in RH …, UniProt O00934 1-831)). Briefly: co-IP.

In the case of “TgMLC1 (Toxoplasma gondii myosin light chain-1) (natural protein)”, the molar ratio to TgMyoA in the complex in experiment [1] is 1.38.

B1: TgGAP45 (Toxoplasma gondii gliding-associated protein 45) (natural protein, UniProt Q7Z289 1-245, looked up)
chain: MGNACKKNTAKTPTRKEAEDLAEKERQEREAKEKAEAEEKARAEAEKNAADKAEAERRAAEAREREESARKEAEAEAARKAEAEAAEAERLRKEAEKKKAEEAKRKAEEEQRAAAEEAEQRAREEAERRKAEAAAAAERERQMQEALKQEEMSPREKYDKLASPEDSASETTMATQPQKVAEHSSAAVTDRSVVGYTVTPCDMAAIDETAKYLSKRCGCDLGDQHDENECPICRHIDLSDAPLLN
B1: in experiment [2], the “molar ratio to TgMyoA in the complex” value turned out to be 1.31.
